Here are results for 138 substances from the supplement of paper PMC12042874.

± gives the uncertainty stated by the source.

This data set is described as follows: amyloid nucleation score (Sup35N fusion, yeast selection) (log enrichment); library NNK1; higher = more nucleation; inactive = no reads after selection. A digest of the protocol: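 The nucleation score equals the log enrichment of output over input reads from DiMSum, centred on the mode score of non-aggregating sequences. It was computed only for sequences with 100 or more input reads. The reads came from Illumina sequencing of plasmid inserts from psi-negative yeast expressing Sup35N fused to peptides of 20 random codons, induced with 100 μM copper sulfate for 24 hours and grown 7 days at 30°C without adenine and uracil.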
Consider VARYSDRSNTEAYRVRFLGI, for which the amyloid nucleation score worked out at 1.28 ± 0.23.

As to VATPISLGFPPWTSNVHAHT, the amyloid nucleation score entry was “inactive”.

Take VATPSSCVDSQAKTRMTGTL: the amyloid nucleation score was -0.112 ± 0.44.

In the case of VAVRTPMSVCSVLLGSGSGL, the amyloid nucleation score is -0.162 ± 1.1.

In turn, VAVTSSMFFRPNFNLNTVLS came in with an amyloid nucleation score of 3.69 ± 0.067.

Regarding VCEISLN, the amyloid nucleation score came to 0.016 ± 1.2.

In the case of VCFTYNFSPQLVL, the amyloid nucleation score came out at 0.098 ± 0.38.

The substance VCINFHYLVGINVIRRNDWV returned an amyloid nucleation score of 4.48 ± 0.1.

VCLRLARWILHQKHTYVYWY: the amyloid nucleation score entry was “inactive”.

Substance VCNIS registered an amyloid nucleation score of 0.985 ± 0.42.

Regarding VCSGTFGYHRRYEWDWVLKG, the amyloid nucleation score was found to be 0.215 ± 1.2.

As for VCSQHGGWISGGKGSILARS, the amyloid nucleation score was -0.417 ± 0.99.

Turning to VCTCTLVVDSTLCLGSVGTA, the amyloid nucleation score was 2.04 ± 0.18.

VCVGFIGDVIRLERSANSVL: the amyloid nucleation score was -0.049 ± 0.3.

Take VCVGNAETYMERNYV: the amyloid nucleation score was determined as 0.531 ± 0.4.

VCVLFELMSKVKGQKARKDQ displayed an amyloid nucleation score of 0.425 ± 1.1.

Turning to VCYSLSLNISFSFRNVVVRS, the amyloid nucleation score was 0.899 ± 0.58.

For the substance VDDHDPKIGSMLPSIPNGVQ, the amyloid nucleation score is -0.571 ± 0.42.

Substance VDFDPNVLFKWTDMKRSRSR had an amyloid nucleation score of 1.66 ± 0.48.

On to VDLIPLEGVRGAWLQASQRG, for which the amyloid nucleation score was found to be 0.664 ± 0.49.

With VDLVGYVVGIFNVYKVVEDT, the amyloid nucleation score was -0.321 ± 0.23.

The substance VDRLAEMHTLEWARSVRLSV returned an amyloid nucleation score of 0.55 ± 0.92.

For the substance VDSRSWTNLMWSRVAKWLMG, the amyloid nucleation score is 0.155 ± 0.51.

VDSVLIWIMFAAMGSKCPG yielded an amyloid nucleation score of 1.77 ± 0.23.

Substance VDVMRVVLNLNCSRTSVIYM returned an amyloid nucleation score of 5.938 ± 0.048.

As for VDYSLSENSTVLLNIWDL, the amyloid nucleation score is -0.008 ± 0.46.

In turn, VECLKV had an amyloid nucleation score of 0.387 ± 0.52.

Turning to VEEGNMRCSNLMTLEHTTHK, the amyloid nucleation score is -0.582 ± 0.42.

The substance VEGALGYGCASC gave an amyloid nucleation score of 0.768 ± 0.65.

VEIPHKKWNYVSHLLLSIHG: the amyloid nucleation score is 0.307 ± 0.3.

VEMGIIFR: the amyloid nucleation score was -0.339 ± 0.24.

In the case of VEPSYMFGYVVDWEHMVLKS, the amyloid nucleation score is -2.11 ± 2.4.

VEQSFTAAPFQDVLF: the amyloid nucleation score is -0.38 ± 0.32.

As for VEVLWVEDGSQF, the amyloid nucleation score is -0.559 ± 0.31.

As to VFAICGSTCVGEKGTWPGEG, the amyloid nucleation score is -0.263 ± 1.4.

Turning to VFGAFSESLLYSR, the amyloid nucleation score was 0.51 ± 0.35.

VFHFYILMNCESCVTGGVPV yielded an amyloid nucleation score of 7.938 ± 0.054.

As to VFLHVES, the amyloid nucleation score turned out to be 1.85 ± 0.59.

Take VFLMYRLMH: the amyloid nucleation score result is “inactive”.

As to VFNWTHPWLSQH, the amyloid nucleation score is -0.047 ± 0.78.

Regarding VFRWRNKLRNNLCRGKYYWT, the amyloid nucleation score worked out at 2.08 ± 0.43.

With VFSDTPALCIDGLKLFAMVR, the amyloid nucleation score was -0.182 ± 0.3.

As for VFSIIRPGMASSLHGQVQIA, the amyloid nucleation score is 1.28 ± 0.69.

In turn, VFSKNFRVVIFTSNRSLFNK came in with an amyloid nucleation score of 0.595 ± 0.72.

For VFVTGLCSEDVTIYSTM, the amyloid nucleation score is -2.44 ± 2.4.

As for VFVVSVNHRMIVNFTSCLNV, the amyloid nucleation score entry is “inactive”.

With VFYKYRQGARYDFF, the amyloid nucleation score came out at 0.227 ± 0.89.

Consider VFYQLCDWYNFGF, for which the amyloid nucleation score stood at 5.68 ± 0.1.

Take VGFRGVLQIPGLSFPEALVR: the amyloid nucleation score amounted to 0.024 ± 0.46.

The substance VGICMWHN yielded an amyloid nucleation score of 0.718 ± 0.21.

Take VGISMHFRSRENFQSN: the amyloid nucleation score entry is “inactive”.

In turn, VGITDSNRVLILSGQIHGVM displayed an amyloid nucleation score of 0.6 ± 0.46.

For the substance VGKELLLSLRYSNWVCLDWF, the amyloid nucleation score is -0.715 ± 1.4.

With VGLISALANTGMFRTSNCVF, the amyloid nucleation score came out at 0.426 ± 0.5.

With VGRMPNGYVVGINIGLSRRL, the amyloid nucleation score was -0.696 ± 1.7.

In turn, VGRNNASLHSDKNRWFGFGF yielded an amyloid nucleation score of 1.49 ± 0.18.

In the case of VGRTNFYCYWFPCRSLDLLS, the amyloid nucleation score amounted to 5.8 ± 0.046.

VGSCCNQ displayed an amyloid nucleation score of 7.591 ± 0.046.

As to VGSKVYMTSAAMYFVNRGFV, the amyloid nucleation score came out at 6.11 ± 0.081.

With VHIFCSTTCFFMNFMLIQNK, the amyloid nucleation score was -0.045 ± 0.51.

VHNTRYSHVPNKKMRSVIRK returned an amyloid nucleation score of 1.44 ± 0.42.

In the case of VHTINRTQLYNIH, the amyloid nucleation score was -0.215 ± 0.65.

On to VHWLNCRLLGSLWVVGANWL, for which the amyloid nucleation score entry is “inactive”.

Regarding VICFWTLSRFYRGRD, the amyloid nucleation score was -1.13 ± 0.62.

VIGKMDEVGSIVEFDSGIRV displayed an amyloid nucleation score of 0.658 ± 0.47.

In the case of VIIRIIKFTCNSSLIIITKW, the amyloid nucleation score was determined as 0.694 ± 0.49.

Take VIIRRWHIVFCSRFMFPCNF: the amyloid nucleation score stood at 0.297 ± 0.64.

Take VIPKGPSKTLNNFWYYAYHS: the amyloid nucleation score is -0.327 ± 0.79.

Take VIPVFRGSSFA: the amyloid nucleation score was -0.055 ± 0.66.

Consider VISIGIGMDTTTRVGQMYMK, for which the amyloid nucleation score was -0.115 ± 1.4.

As for VISPNSLTCCAH, the amyloid nucleation score was -0.146 ± 0.93.

VITWEWFRFRRRFGKMEGCL came in with an amyloid nucleation score of 1.24 ± 0.28.

On to VKFCCFGLLCELYSGHSGRM, for which the amyloid nucleation score stood at 1.33 ± 0.15.

In the case of VKFMMRLDYYCPLSTVQTTA, the amyloid nucleation score was -0.644 ± 0.36.

Turning to VKLLYVIISYVRVCCRMDQI, the amyloid nucleation score was -0.501 ± 0.54.

VKPLKHPSGYYAMRRFVYNI: the amyloid nucleation score is -0.566 ± 1.2.

Take VKSGS: the amyloid nucleation score is 0.21 ± 0.24.

On to VKTHSVFSMMVV, for which the amyloid nucleation score came to 0.558 ± 0.51.

Regarding VLCLHWWLRTILGPLLAYAN, the amyloid nucleation score entry was “inactive”.

Regarding VLCPW, the amyloid nucleation score is -0.283 ± 0.44.

In turn, VLDGVNNNILLCLISRWGVL registered an amyloid nucleation score of 4.46 ± 0.079.

Regarding VLDMKFKYNVPSLK, the amyloid nucleation score came to 5.41 ± 0.06.

For the substance VLFESIRWMSG, the amyloid nucleation score is -0.142 ± 1.1.

For VLGTLSMFYFRAYFRPAWLS, the amyloid nucleation score was -0.278 ± 0.5.

Take VLISENNITNHNSHECLVCY: the amyloid nucleation score is -1.02 ± 1.7.

As for VLIWPGRRNSARSYWSSSGL, the amyloid nucleation score was 1.21 ± 0.66.

The substance VLKDFYNDDKRFQRRL returned an amyloid nucleation score of 0.421 ± 0.3.

On to VLKTWVIDNKSVGEMCNLNG, for which the amyloid nucleation score was 0.556 ± 0.85.

Consider VLLIPMTKAKMKMSIW, for which the amyloid nucleation score came out at 0.584 ± 0.34.

The substance VLLTMWFNFFLLRNRGVVFS showed an amyloid nucleation score of 2.65 ± 0.08.

In turn, VLLVGDPDLPRKRRLRRIAE showed an amyloid nucleation score of 1.23 ± 0.62.

As for VLMMV, the amyloid nucleation score was found to be 1.28 ± 0.48.

Turning to VLQQGTSLTKYV, the amyloid nucleation score was found to be 0.509 ± 0.42.

VLRWYEDNPFC yielded an amyloid nucleation score of 0.291 ± 0.32.

For the substance VLSDSDINMRLEKEFYVIIS, the amyloid nucleation score result is “inactive”.

As to VLSSDGGGFVYFRYSGYTCR, the amyloid nucleation score was 0.253 ± 0.67.

For the substance VLSSGESIRNTAINVEVEHQ, the amyloid nucleation score was 0.449 ± 0.38.

Turning to VLSVGQESTMISESGFNTEN, the amyloid nucleation score is -0.001 ± 0.55.

Take VLSVSCVRYISGVRERWYVL: the amyloid nucleation score stood at 1.23 ± 0.6.

The substance VLVFCVTMVRNYSWCIGWRI registered an amyloid nucleation score of 0.035 ± 0.44.

With VLVGCLASQRVISENKGCKC, the amyloid nucleation score was 0.722 ± 0.81.

VLWHGLVVRSGNVEIVRSMC: the amyloid nucleation score is -0.175 ± 0.96.

As to VLWSCDAMWWVRIKSTYVWN, the amyloid nucleation score stood at 0.495 ± 1.2.

Substance VLWTLVKIPHFTPNIMFRYY had an amyloid nucleation score of 0.053 ± 1.1.

Regarding VLYTTLHGFYHNCWLWLRYS, the amyloid nucleation score was -0.191 ± 0.42.

For the substance VMCAGQESESIRGGYSEVNG, the amyloid nucleation score amounted to 1.17 ± 0.39.

Regarding VMGVLYSRADSVVEIGLLRV, the amyloid nucleation score is -0.972 ± 1.

In turn, VMILNLIVDTRLRVSRHLHV had an amyloid nucleation score of 2.88 ± 0.28.

In the case of VMLTPRDLGLVPIGLDHVRG, the amyloid nucleation score is -0.236 ± 0.38.

Regarding VMPSSELYF, the amyloid nucleation score is 0.349 ± 0.39.

VMRPFWMMMFYFYVEPEALS: the amyloid nucleation score is -0.584 ± 0.95.

Regarding VMTWTLCRTRG, the amyloid nucleation score was -0.275 ± 0.4.

In the case of VMVWHCRSATTWWKQVTMNL, the amyloid nucleation score is -0.584 ± 2.1.

Substance VNCISHGACMCRWFYDSGKK came in with an amyloid nucleation score of 0.847 ± 0.38.

Regarding VNCSRYRGESASDNWSGALL, the amyloid nucleation score was -0.186 ± 0.85.

VNDWALVLSNLDSNVLSSRT registered an amyloid nucleation score of 0.566 ± 0.24.

VNFILNF registered an amyloid nucleation score of 5.41 ± 0.066.

For VNFYDLVL, the amyloid nucleation score is 0.318 ± 0.46.

Regarding VNHCMMHEYLGGLLSSVIG, the amyloid nucleation score was 0.773 ± 0.24.

With VNLGKNFTQLLIGRCVSKVR, the amyloid nucleation score amounted to 0.417 ± 0.33.

The substance VNNIVRSICGIKGEVRFLCG came in with an amyloid nucleation score of 0.094 ± 1.2.

VNQFLRAMVPLKLRYRYFCL had an amyloid nucleation score of 1.02 ± 0.74.

Consider VNSTEGP, for which the amyloid nucleation score is -0.989 ± 2.7.

Regarding VPCMWRFTHVSKYEGKSRTL, the amyloid nucleation score was -0.452 ± 0.42.

In the case of VPIMYNFGINDVGSVCDCTD, the amyloid nucleation score amounted to 7.259 ± 0.053.

With VPPCEWHRRTYR, the amyloid nucleation score was determined as 0.176 ± 1.1.

As to VPTYGFGLEIFKDFSMNR, the amyloid nucleation score is -0.926 ± 0.44.

Take VPVVDNIVSIL: the amyloid nucleation score was -0.718 ± 1.7.

Consider VPVYNMNFYAVLHILSFCLD, for which the amyloid nucleation score stood at 4.18 ± 0.057.

As for VPWSFLQRSWLDIWECPYKL, the amyloid nucleation score is -0.276 ± 0.41.

On to VQAKYNSSLGESNRDSDCAS, for which the amyloid nucleation score is 0.187 ± 0.34.

VQDLYCIRYL: the amyloid nucleation score is -1.39 ± 2.4.

VQEYGASCKSMTGLGTLKCK registered an amyloid nucleation score of 0.876 ± 0.81.

For the substance VRDMHSHTLGYCRDGMYYFK, the amyloid nucleation score is -0.403 ± 0.84.

Substance VRGSVLCHRSLHETKNFL had an amyloid nucleation score of 0.279 ± 0.38.

VRGSVRCNVDYLICVYVHR: the amyloid nucleation score worked out at 1.46 ± 0.51.

VRHCTQINSPFYYDFN: the amyloid nucleation score is -0.318 ± 0.3.

Consider VRKYRRWSRMIWGCYNNFVF, for which the amyloid nucleation score was -1.44 ± 0.53.
